Laboratory results as given in paper PMC2199009.
pIC50: −log10 of the molar value.

Experiments:
[1] = target: purified full length LFA-1 (lymphocyte function–associated antigen 1) (human (endogenous in JY)) (UniProt P20701); experiment: adhesion in a parallel plate flow cell
[2] = target: GPI-anchored form of the LFA-1 I domain (I-GPI), stably expressed on baby hamster kidney cells (UniProt P20701); experiment: radioligand binding

UniProt P20701, sequence (P20701 26-1170, chain 1 of 2): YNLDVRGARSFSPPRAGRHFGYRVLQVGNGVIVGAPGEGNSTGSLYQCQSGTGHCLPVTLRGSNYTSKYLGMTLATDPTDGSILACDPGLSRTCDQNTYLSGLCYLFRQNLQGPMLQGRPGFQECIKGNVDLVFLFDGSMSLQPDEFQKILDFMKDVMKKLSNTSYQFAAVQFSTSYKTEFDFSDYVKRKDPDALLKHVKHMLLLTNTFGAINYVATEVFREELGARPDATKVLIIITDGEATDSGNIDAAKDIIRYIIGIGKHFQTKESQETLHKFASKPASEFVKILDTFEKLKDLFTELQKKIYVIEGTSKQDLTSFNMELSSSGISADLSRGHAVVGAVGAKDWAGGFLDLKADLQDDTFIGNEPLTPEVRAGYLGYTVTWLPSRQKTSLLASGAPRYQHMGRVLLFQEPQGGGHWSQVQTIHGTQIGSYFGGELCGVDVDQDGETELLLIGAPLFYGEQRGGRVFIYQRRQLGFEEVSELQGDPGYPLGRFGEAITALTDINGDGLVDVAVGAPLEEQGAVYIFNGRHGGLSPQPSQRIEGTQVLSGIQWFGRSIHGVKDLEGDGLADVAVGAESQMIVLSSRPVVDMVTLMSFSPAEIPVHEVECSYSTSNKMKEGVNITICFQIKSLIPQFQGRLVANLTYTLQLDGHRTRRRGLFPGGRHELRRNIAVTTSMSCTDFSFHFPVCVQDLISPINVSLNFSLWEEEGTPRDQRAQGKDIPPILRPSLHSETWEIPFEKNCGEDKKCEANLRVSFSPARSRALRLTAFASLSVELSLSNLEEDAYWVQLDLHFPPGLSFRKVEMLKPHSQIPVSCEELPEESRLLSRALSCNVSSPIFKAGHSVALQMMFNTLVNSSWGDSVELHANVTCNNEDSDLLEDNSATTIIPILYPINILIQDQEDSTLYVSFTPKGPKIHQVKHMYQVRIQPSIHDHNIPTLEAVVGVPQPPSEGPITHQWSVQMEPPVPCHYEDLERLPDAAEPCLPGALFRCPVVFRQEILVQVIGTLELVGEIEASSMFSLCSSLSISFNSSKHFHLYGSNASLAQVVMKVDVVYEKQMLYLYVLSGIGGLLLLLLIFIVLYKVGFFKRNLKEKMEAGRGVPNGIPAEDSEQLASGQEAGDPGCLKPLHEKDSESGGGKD
UniProt P20701, sequence (P05107 23-769, chain 2 of 2, further chain): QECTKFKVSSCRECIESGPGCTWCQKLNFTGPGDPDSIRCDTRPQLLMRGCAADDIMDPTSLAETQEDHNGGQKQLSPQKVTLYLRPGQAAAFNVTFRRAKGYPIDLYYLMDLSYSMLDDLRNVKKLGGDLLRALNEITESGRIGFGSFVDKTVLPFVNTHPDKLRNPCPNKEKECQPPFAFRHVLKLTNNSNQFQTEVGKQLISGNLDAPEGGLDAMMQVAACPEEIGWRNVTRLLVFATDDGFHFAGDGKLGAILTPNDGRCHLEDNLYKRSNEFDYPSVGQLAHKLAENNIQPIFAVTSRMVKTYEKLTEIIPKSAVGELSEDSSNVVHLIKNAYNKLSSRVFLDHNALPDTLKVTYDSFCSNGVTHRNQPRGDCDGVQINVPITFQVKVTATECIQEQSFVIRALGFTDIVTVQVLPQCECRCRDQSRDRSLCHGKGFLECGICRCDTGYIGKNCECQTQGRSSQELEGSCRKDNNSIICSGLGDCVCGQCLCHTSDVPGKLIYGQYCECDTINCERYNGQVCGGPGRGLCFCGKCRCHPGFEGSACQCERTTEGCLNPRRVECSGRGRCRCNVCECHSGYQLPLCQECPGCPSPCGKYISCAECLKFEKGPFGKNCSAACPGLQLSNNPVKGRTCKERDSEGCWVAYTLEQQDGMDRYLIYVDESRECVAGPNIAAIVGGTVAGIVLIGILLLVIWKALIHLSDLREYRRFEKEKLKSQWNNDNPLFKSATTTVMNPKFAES

Substance | percent cells free [1] [%] | percent cells rolling [1] [%] | percent cells stable [1] [%] | pIC50 [2]
ICAM-1 GPI on transfected baby hamster kidney cells (domain or fragment) | 73 | 0 | 26 | 
soluble ICAM-1 (sICAM-1) (domain or fragment) |  |  |  | 3.82
